Source: PMC7954794, “Protein context shapes the specificity of SH3 domain-mediated interactions in vivo” (Nature Communications, 2021)

System: 575 putative partners (preys) of 22 WT SH3-containing proteins
Assay: DHFR-PCA on solid medium, WT and SH3-deleted baits (Fig. 1B)
Assay type: cell-based, Saccharomyces cerevisiae
Design: key to Score: 0: SH3-independent; 1: SH3-dependent PPIs; 2: SH3-inhibited PPIs
Conditions: for SH3-dependent PPIs: number of PPIs, SH3 domain in its own protein, DHFR-PCA, Fig2D,S2F; for medrep (log2 median colony size normalized to plate background, PCA score): label = prey
In short: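 Interactions scored by DHFR protein-fragment complementation on solid medium using robotic pinning; preys (DHFR F[3] fusions) arrayed in duplicate with control borders. Baits carried C-terminal DHFR F[1,2]-FLAG tags, tested as wild type and as SH3-deleted versions carrying a flexible Gly/Ser stuffer.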

B1: FUS1 (protein, UniProt P11710 1-512, looked up)
Nuclear fusion protein FUS1: MVATIMQTTTTVLTTVAAMSTTLASNYISSQASSSTSVTTVTTIATSIRSTPSNLLFSNVAAQPKSSSASTIGLSIGLPIGIFCFGLLILLCYFYLKRNSVSISNPPMSATIPREEEYCRRTNWFSRLFWQSKCEDQNSYSNRDIEKYNDTQWTSGDNMSSKIQYKISKPIIPQHILTPKKTVKNPYAWSGKNISLDPKVNEMEEEKVVDAFLYTKPPNIVHIESSMPSYNDLPSQKTVSSKKTALKTSEKWSYESPLSRWFLRGSTYFKDYGLSKTSLKTPTGAPQLKQMKMLSRISKGYFNESDIMPDERSPILEYNNTPLDANDSVNNLGNTTPDSQITSYRNNNIDLITARPHSVIYGTTAQQTLETNFNDHHDCNKSTEKHELIIPTPSKPLKKRKKRRQSKMYQHLQHLSRSKPLPLTPNSKYNGEASVQLGKTYTVIQDYEPRLTDEIRISLGEKVKILATHTDGWCLVEKCNTQKGSIHVSVDDKRYLNEDRGIVPGDCLQEYD
**Q.** Which “SH3-dependent PPIs” value does the source give for B1 here?
**A.** 0

B2: HSE1 (protein, UniProt P38753 2-452, looked up)
Class E vacuolar …: SSSAIKIRNALLKATDPKLRSDNWQYILDVCDLVKEDPEDNGQEVMSLIEKRLEQQDANVILRTLSLTVSLAENCGSRLRQEISSKNFTSLLYALIESHSVHITLKKAVTDVVKQLSDSFKDDPSLRAMGDLYDKIKRKAPYLVQPNVPEKHNMSTQADNSDDEELQKALKMSLFEYEKQKKLQEQEKESAEVLPQQQQQHQQQNQAPAHKIPAQTVVRRVRALYDLTTNEPDELSFRKGDVITVLEQVYRDWWKGALRGNMGIFPLNYVTPIVEPSKEEIEKEKNKEAIVFSQKTTIDQLHNSLNAASKTGNSNEVLQDPHIGDMYGSVTPLRPQVTRMLGKYAKEKEDMLSLRQVLANAERSYNQLMDRAANAHISPPVPGPALYAGMTHANNTPVMPPQRQSYQSNEYSPYPSNLPIQHPTNSANNTPQYGYDLGYSVVSQPPPGYEQ
**Q.** B2 was tested. Which “SH3-dependent PPIs” value did it give?
**A.** 1

B3: HOF1 (protein, UniProt Q05080 1-669, looked up)
Cytokinesis protein 2: MSYSYEACFWDPNDNGVNILLGHISQGIRSCDSMILFFKQRSELEKDYARRLGAITGKLDKDIGTNMDYGKLNETFNVVLSVEKARAQSHSKQSEILFRQIYTDTKAFAANLQARYTTLSGKIERLRMDKFNKKKGCEVLQKKLQDAQIRFRDLQLNENNMIGAKRVEHNKRELLKWESNSQEYKVQLDVLKQEYKASQKFWIHEWAQLSCELQEMENARISFLQSKLQQFATSSMETYILEQTKMDMLTNHLNSFTAADEISTFSKENGTGRLKHKTSKGDMNSSANWAQMSSISTTSKKTESYMDNIRKLSSQLKETENKRKLASIDKYEKPLPSPEVTMATQFRNSTPVIRNETKVVANPTLSLRSSPVQLQSNVDDSVLRQKPDKPRPIVGEEQLKPDEDSKNPDEKGLMVHKRNQSLSSPSESSSSNPTDFSHIKKRQSMESMTTSVSSMANSIDDSQRFAKSWNSSNRKRKSMSHLQVPSSASSRSDDGGRTPNSAHNLNEDDYNTRRDTSTSTILFKPPVAVRGTSRGHTHRQSMIMQDSSNPIEDALYEMERIQSSSKPGTKTGNIMDERGVVRDRGITVTLPIVTSEGFPVIEYAKAMYPLIGNEAPGLANFHKGDYLLITEIVNKDWYKGEVYDNDRIDRNHRIGLIPYNFIQLLHQGL
**Q.** Which “SH3-dependent PPIs” value does the source give for B3 here?
**A.** 4

B4: BBC1: yeast SH3-containing protein; SH3-deleted or knockout strain (protein, UniProt P47068 1-1157, looked up)
Myosin tail …: MSEPEVPFKVVAQFPYKSDYEDDLNFEKDQEIIVTSVEDAEWYFGEYQDSNGDVIEGIFPKSFVAVQGSEVGKEAESSPNTGSTEQRTIQPEVEQKDLPEPISPETKKETLSGPVPVPAATVPVPAATVPVPAATAVSAQVQHDSSSGNGERKVPMDSPKLKARLSMFNQDITEQVPLPKSTHLDLENIPVKKTIVADAPKYYVPPGIPTNDTSNLERKKSLKENEKKIVPEPINRAQVESGRIETENDQLKKDLPQMSLKERIALLQEQQRLQAAREEELLRKKAKLEQEHERSAVNKNEPYTETEEAEENEKTEPKPEFTPETEHNEEPQMELLAHKEITKTSREADEGTNDIEKEQFLDEYTKENQKVEESQADEARGENVAEESEIGYGHEDREGDNDEEKEEEDSEENRRAALRERMAKLSGASRFGAPVGFNPFGMASGVGNKPSEEPKKKQHKEKEEEEPEQLQELPRAIPVMPFVDPSSNPFFRKSNLSEKNQPTETKTLDPHATTEHEQKQEHGTHAYHNLAAVDNAHPEYSDHDSDEDTDDHEFEDANDGLRKHSMVEQAFQIGNNESENVNSGEKIYPQEPPISHRTAEVSHDIENSSQNTTGNVLPVSSPQTRVARNGSINSLTKSISGENRRKSINEYHDTVSTNSSALTETAQDISMAAPAAPVLSKVSHPEDKVPPHPVPSAPSAPPVPSAPSVPSAPPVPPAPPALSAPSVPPVPPVPPVSSAPPALSAPSIPPVPPTPPAPPAPPAPLALPKHNEVEEHVKSSAPLPPVSEEYHPMPNTAPPLPRAPPVPPATFEFDSEPTATHSHTAPSPPPHQNVTASTPSMMSTQQRVPTSVLSGAEKESRTLPPHVPSLTNRPVDSFHESDTTPKVASIRRSTTHDVGEISNNVKIEFNAQERWWINKSAPPAISNLKLNFLMEIDDHFISKRLHQKWVVRDFYFLFENYSQLRFSLTFNSTSPEKTVTTLQERFPSPVETQSARILDEYAQRFNAKVVEKSHSLINSHIGAKNFVSQIVSEFKDEVIQPIGARTFGATILSYKPEEGIEQLMKSLQKIKPGDILVIRKAKFEAHKKIGKNEIINVGMDSAAPYSSVVTDYDFTKNKFRVIENHEGKIIQNSYKLSHMKSGKLKVFRIVARGYVGW
**Q.** How did the “SH3-dependent PPIs” value turn out when B4 was run?
**A.** 19

B5: LSB1 (protein, UniProt P53281 2-241, looked up)
LAS seventeen-binding protein …: SASLVNRSLKNIRNELEFLKESNVISGDIFELINSKLPEKWDGNQRSPQNADTEEYVEALYDFEAQQDGDLSLKTGDKIQVLEKISPDWYRGKSNNKIGIFPANYVKPAFTRSASPKSAEAASSSTVSRPSVPPPSYEPAASQYPSQQVSAPYAPPAGYMQAPPPQQQQAPLPYPPPFTNYYQQPQQQYAPPSQQAPVEAQPQQSSGASSAFKSFGSKLGNAAIFGAGSAIGSDIVNSIF
**Q.** Which “SH3-dependent PPIs” value does the source give for B5 here?
**A.** 8

B6: LSB3 (protein)
chain: MGINNPIPRSLKSETKKAAKILASFVKPNQVFGADQVIPPDVLKRAKGLAIITILKAGFLFSGRAGSGVIVARLKDGTWSAPSAIAMAGAGAGGMVGIELTDFVFILNTQDAVKSFSEFGTITLGGNVSVSAGPLGRSAEAAASASAGGVAAVFAYSKSKGLFAGVSVEGSAIIERREANRKFYGDNCTAKMILSGRIRPPPAVDPLFRVLESRAFNYRPSNGGRGSFDDDEDDYYDDDDYYNDIPSSFSSTDASSTRPNTRSTRRRAQSGSRYTFDDDDDDDDYGTGYSRNSRLAPTNSGGSGGKLDDPSGASSYYASHRRSGTAQSRARSSRNRWADDEYDDYDDDYESGYRRGNGRDRTKDREVDDLSNRFSKSRISSASTPQTSQGRFTAPTSPSTSSPKAVALYSFAGEESGDLPFRKGDVITILKKSDSQNDWWTGRVNGREGIFPANYVELV
modifications: left off: DHFR F[3], C-terminal, kept
**Q.** Which “SH3-dependent PPIs” value does the source give for B6 here?
**A.** 19

B7: YBL039C (protein, UniProt P28274 1-579, looked up)
CTP synthase 1: MKYVVVSGGVISGIGKGVLASSTGMLMKTLGLKVTSIKIDPYMNIDAGTMSPLEHGECFVLDDGGETDLDLGNYERYLGVTLTKDHNITTGKIYSHVIAKERKGDYLGKTVQIVPHLTNAIQDWIERVAKIPVDDTGMEPDVCIIELGGTVGDIESAPFVEALRQFQFKVGKENFALIHVSLVPVIHGEQKTKPTQAAIKGLRSLGLVPDMIACRCSETLDKPTIDKIAMFCHVGPEQVVNVHDVNSTYHVPLLLLEQKMIDYLHARLKLDEISLTEEEKQRGLELLSKWKATTGNFDESMETVKIALVGKYTNLKDSYLSVIKALEHSSMKCRRKLDIKWVEATDLEPEAQESNKTKFHEAWNMVSTADGILIPGGFGVRGTEGMVLAARWARENHIPFLGVCLGLQIATIEFTRSVLGRKDSHSAEFYPDIDEKNHVVVFMPEIDKETMGGSMRLGLRPTFFQNETEWSQIKKLYGDVSEVHERHRHRYEINPKMVDELENNGLIFVGKDDTGKRCEILELKNHPYYIATQYHPEYTSKVLDPSKPFLGLVAASAGILQDVIEGKYDLEAGENKFNF
**Q.** With B7 as the molecule, how does the “medrep (log2 median colony size normalized to plate background, PCA score)” value (bait SLA1-2, DHFR-PCA, Replicates 4 (2 for YCR009C, YDR388W)) read?
**A.** 2.2515

**Q.** And the Score (bait SLA1-2, label = prey)?
**A.** 1

**Q.** And the “Ratio (SH3-deleted/WT medrep)” value (bait SLA1-2, label = prey, only significant differences shown, PPIs completely lost have a ratio of 0.1, gained PPIs 2.5)?
**A.** 0.1

**Q.** And the “medrep (log2 median colony size normalized to plate background, PCA score)” value (bait SLA1-3, DHFR-PCA, Replicates 4 (2 for YCR009C, YDR388W, YIL033C))?
**A.** 2.2515

**Q.** And the Score (bait SLA1-3, label = prey)?
**A.** 0

B8: CYK3 (protein, UniProt Q07533 1-885, looked up)
Cytokinesis protein 3: MATNLTSLKPPFKVKARYGWSGQTKGDLGFLEGDIMEVTRIAGSWFYGKLLRNKKCSGYFPHNFVILLEERLNSSTENGRQPSKIVESFEKSNKVVIPPVPSRYSDERPRPKKKLSSSMPNSPKKPVDSLTKARKAKSKEMVNEKNIYNTQSSRHHNNSAPNLPLASHSKPQVRNFEESMNNPLPPLPPLPDLDNMRKTDKRAPKKSYSANDLHMARSSREYNYYKDNQKFYDGFIPEKRYSLEEDSISSGLFSNSQYLNDSACSSENSFALMSDFSATSAGSFARHKYAQSFSDSLQRSQNANGCSTKINDSQEFGDSNASSRNGKMGDILRKIIIPKRNTNIYSSSVSSPKSPKAYPKLPDIQNLNLSATPDEARDWIAVKCHLNRARTLTKYDKHPRYMRALEENRDLILHPQDSIYNGLNTNEVKGNTKPGLVDVELAELNIEYIDKMTWKRCIRDGTMTLDSWAQTTFSARYSTVLEKLRGIYIFCTEMFALTDDNGTSDFSAEPQNLEKILYRKHCTPYELTWLFKKLANSLGITCEIVIGFLKTPSAINWEFKYNHCWLRILVNKEWRFIDVILGNVTNPIHEFVNNRKIKKAENSYFLMAPLEMIYTHIPPREFEQHIVPSIDQLSALYLPLVFPSFFKNELKLYKFSTALSFLEDSEIYECSLEIPNDVEVFASVVIPTDNEEASSAYRNMELALTQIKKQKAESGRRIALIKAVLPPNVNKGSLYIHSGVRGTQTSIANIHPLSMMVPLTHKGSNMKYEFVIKIPSESIQKIELYIVEPQSRYLFVGNEYSFEVIQSPSDGIVYSSDEGPNQNRKQPMAIKSPSGRVHELVKSDPHFPYGTWKGSIKIKEPGVWSALVIADSGIGWSVFAEWLCV
**Q.** Which “SH3-dependent PPIs” value does the source give for B8 here?
**A.** 0
